The assay has as its target human BTN3A1 ectopically expressed on K32 cells (human, UniProt O00481 30-513). Briefly: cell-based or functional assay.

Some results are limits rather than exact numbers.

Chain of human BTN3A1 ectopically expressed on K32 cells (O00481 30-513 limits assumed, form in doubt): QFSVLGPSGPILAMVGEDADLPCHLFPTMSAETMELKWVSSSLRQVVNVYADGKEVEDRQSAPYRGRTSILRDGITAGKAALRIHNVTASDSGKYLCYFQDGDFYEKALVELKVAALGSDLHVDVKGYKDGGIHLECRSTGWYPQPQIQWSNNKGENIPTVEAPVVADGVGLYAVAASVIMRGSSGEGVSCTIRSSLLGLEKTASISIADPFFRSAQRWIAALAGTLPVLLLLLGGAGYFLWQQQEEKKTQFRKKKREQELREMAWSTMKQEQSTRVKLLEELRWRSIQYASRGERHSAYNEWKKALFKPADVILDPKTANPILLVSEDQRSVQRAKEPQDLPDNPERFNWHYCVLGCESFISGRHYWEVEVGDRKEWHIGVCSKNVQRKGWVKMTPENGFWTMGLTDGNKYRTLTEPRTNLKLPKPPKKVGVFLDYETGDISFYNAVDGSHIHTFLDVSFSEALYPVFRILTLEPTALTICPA

B1: anti-CD277 monoclonal antibody mAb1 (antibody, V domains shown)
VH: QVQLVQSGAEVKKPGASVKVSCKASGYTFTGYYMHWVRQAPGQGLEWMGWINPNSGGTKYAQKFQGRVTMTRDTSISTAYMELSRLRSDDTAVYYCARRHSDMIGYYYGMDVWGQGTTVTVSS
VL: DIQMTQSPSSVSASVGDRVTITCRASQGISSWLAWYQQKPGKAPKLLIYAASSLQSGVPSRFSGSGSGTDFTLTISSLQPEDFATYYCQQATDFPPTFGGGTKVEIK
Turning to B1, the “proliferation of gated CD4+ T cells within total PBMCs co-cultured with anti-CD3/anti-CD28 coated BTN-K32 cells (Figure 3A)” value is not below 1.5 fold, the “proliferation of gated CD8+ T cells within total PBMCs co-cultured with anti-CD3/anti-CD28 coated BTN-K32 cells (Figure 3C)” value was not below 1.5 fold, the “proliferation of purified CD4+ T cells stimulated with BTN-K32 cells (Figure 4A)” value is not below 1.5 fold and the “proliferation of purified CD8+ T cells stimulated with BTN-K32 cells (Figure 4C)” value is not below 2 fold. Moreover, the “release of IFN-g from purified CD4+ T cells stimulated with BTN-K32 cells (ELISA, Figure 5A)” value was more than 2 fold and the “release of IFN-g from purified CD8+ T cells stimulated with BTN-K32 cells (ELISA, Figure 5C)” value was approximately 1300 fold.

(Values after WO2020033925A2 (dated 2020).)
